Results: IntAct's records for PubMed 35512704

B1: Mothers against decapentaplegic homolog 4 (Homo sapiens), Q13485 (parent)
chain: MDNMSITNTPTSNDACLSIVHSLMCHRQGGESETFAKRAIESLVKKLKEKKDELDSLITAITTNGAHPSKCVTIQRTLDGRLQVAGRKGFPHVIYARLWRWPDLHKNELKHVKYCQYAFDLKCDSVCVNPYHYERVVSPGIDLSGLTLQSNAPSSMMVKDEYVHDFEGQPSLSTEGHSIQTIQHPPSNRASTETYSTPALLAPSESNATSTANFPNIPVASTSQPASILGGSHSEGLLQIASGPQPGQQQNGFTGQPATYHHNSTTTWTGSRTAPYTPNLPHHQNGHLQHHPPMPPHPGHYWPVHNELAFQPPISNHPAPEYWCSIAYFEMDVQVGETFKVPSSCPIVTVDGYVDPSGGDRFCLGQLSNVHRTEAIERARLHIGKGVQLECKGEGDVWVRCLSDHAVFVQSYYLDREAGRAPGDAVHKIYPSAYIKVFDLRQCHRQMQQQAATAQAAAAAQAAAVAGNIPGPGSVGGIAPAISLSAAAGIGVDDLRRLCILRMSFVKGWGPDYPRQSIKETPCWIEIHLHRALQLLDEVLHTMPIADPQPLD

Variants of: B1
Settings: with vgfr2_human KDR

effect of a mutation on the interaction | Variant
with no effect | G386D

Variants of: B1
Settings: with keap1_human KEAP1, Q14145

effect of a mutation on the interaction | Variant
with no effect | G386D

Variants of: B1
Settings: with klf4_human KLF4, O43474

effect of a mutation on the interaction | Variant
with no effect | G386D

Variants of: B1
Settings: with lims1_human LIMS1, P48059

effect of a mutation on the interaction | Variant
with no effect | G386D

Variants of: B1
Settings: with maga6_human MAGEA6, P43360

effect of a mutation on the interaction | Variant
with no effect | G386D

Variants of: B1
Settings: with mp2k7_human MAP2K7, O14733

effect of a mutation on the interaction | Variant
with no effect | G386D

Variants of: B1
Settings: with m3k1_human MAP3K1, Q13233

effect of a mutation on the interaction | Variant
with no effect | G386D

Variants of: B1
Settings: with m3k5_human MAP3K5, Q99683

effect of a mutation on the interaction | Variant
with no effect | G386D

Variants of: B1
Settings: with mk10_human MAPK10, P53779

effect of a mutation on the interaction | Variant
with no effect | G386D

Variants of: B1
Settings: with mk14_human MAPK14, Q16539

effect of a mutation on the interaction | Variant
with no effect | G386D

Variants of: B1
Settings: with mk03_human MAPK3, P27361

effect of a mutation on the interaction | Variant
with no effect | G386D

Variants of: B1
Settings: with mk04_human MAPK4, P31152
mk04_human MAPK4, P31152, sequence (P31152 whole entry): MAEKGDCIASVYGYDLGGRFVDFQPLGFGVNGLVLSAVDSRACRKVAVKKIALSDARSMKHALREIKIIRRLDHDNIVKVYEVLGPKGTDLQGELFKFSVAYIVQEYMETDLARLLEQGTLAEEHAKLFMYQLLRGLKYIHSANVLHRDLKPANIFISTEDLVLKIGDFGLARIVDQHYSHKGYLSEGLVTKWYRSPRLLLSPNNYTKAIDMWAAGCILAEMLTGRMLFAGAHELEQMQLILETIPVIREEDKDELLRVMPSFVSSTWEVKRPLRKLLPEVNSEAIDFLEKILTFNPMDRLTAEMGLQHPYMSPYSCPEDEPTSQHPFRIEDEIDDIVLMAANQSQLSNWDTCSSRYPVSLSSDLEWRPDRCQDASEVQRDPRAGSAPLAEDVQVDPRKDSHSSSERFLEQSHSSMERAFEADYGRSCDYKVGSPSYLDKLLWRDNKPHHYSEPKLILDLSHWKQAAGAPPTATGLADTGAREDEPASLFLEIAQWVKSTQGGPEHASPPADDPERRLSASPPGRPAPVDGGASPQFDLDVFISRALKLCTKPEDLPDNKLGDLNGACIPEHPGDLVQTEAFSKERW

effect of a mutation on the interaction | Variant
with no effect | G386D

Variants of: B1
Settings: with mk06_human MAPK6, Q16659
mk06_human MAPK6, Q16659, sequence (Q16659 whole entry): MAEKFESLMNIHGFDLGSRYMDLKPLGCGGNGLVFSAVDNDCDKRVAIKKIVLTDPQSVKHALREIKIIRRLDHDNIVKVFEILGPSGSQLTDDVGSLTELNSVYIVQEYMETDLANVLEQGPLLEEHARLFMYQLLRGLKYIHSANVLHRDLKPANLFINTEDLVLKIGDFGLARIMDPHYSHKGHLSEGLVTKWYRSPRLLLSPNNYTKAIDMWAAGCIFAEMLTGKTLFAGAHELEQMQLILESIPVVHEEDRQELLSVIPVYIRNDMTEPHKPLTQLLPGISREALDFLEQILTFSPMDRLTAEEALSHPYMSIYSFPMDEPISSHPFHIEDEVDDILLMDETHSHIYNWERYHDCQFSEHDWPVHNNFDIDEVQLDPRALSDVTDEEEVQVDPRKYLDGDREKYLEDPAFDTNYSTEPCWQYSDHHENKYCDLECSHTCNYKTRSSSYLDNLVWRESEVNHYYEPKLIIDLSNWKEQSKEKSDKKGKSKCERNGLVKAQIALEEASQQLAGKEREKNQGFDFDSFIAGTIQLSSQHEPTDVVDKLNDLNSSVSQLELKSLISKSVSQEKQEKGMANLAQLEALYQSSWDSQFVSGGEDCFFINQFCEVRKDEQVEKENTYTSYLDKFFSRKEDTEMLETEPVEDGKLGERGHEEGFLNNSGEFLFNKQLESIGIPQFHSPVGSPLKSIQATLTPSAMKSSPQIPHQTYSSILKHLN

effect of a mutation on the interaction | Variant
with no effect | G386D

Variants of: B1
Settings: with mk07_human MAPK7, Q13164

effect of a mutation on the interaction | Variant
with no effect | G386D

Variants of: B1
Settings: with mcl1_human MCL1, Q07820
mcl1_human MCL1, Q07820, sequence (Q07820 whole entry): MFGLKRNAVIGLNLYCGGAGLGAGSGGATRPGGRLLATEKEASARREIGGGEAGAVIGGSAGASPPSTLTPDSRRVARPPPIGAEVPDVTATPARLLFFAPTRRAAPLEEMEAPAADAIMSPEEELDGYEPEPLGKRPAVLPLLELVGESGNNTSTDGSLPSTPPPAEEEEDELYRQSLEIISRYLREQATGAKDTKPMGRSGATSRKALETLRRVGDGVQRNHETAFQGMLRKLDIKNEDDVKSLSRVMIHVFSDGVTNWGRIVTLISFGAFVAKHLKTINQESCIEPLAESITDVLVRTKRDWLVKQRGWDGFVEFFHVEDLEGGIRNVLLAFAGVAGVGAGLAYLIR

effect of a mutation on the interaction | Variant
with no effect | G386D

Variants of: B1
Settings: with mitf_human MITF

effect of a mutation on the interaction | Variant
with no effect | G386D

Variants of: B1
Settings: with mtor_human MTOR

effect of a mutation on the interaction | Variant
with no effect | G386D

Variants of: B1
Settings: with myc_human MYC

effect of a mutation on the interaction | Variant
with no effect | G386D

Variants of: B1
Settings: with nf1_human NF1, P21359

effect of a mutation on the interaction | Variant
with no effect | G386D

Variants of: B1
Settings: with merl_human NF2, P35240
merl_human NF2, P35240, sequence (P35240 whole entry): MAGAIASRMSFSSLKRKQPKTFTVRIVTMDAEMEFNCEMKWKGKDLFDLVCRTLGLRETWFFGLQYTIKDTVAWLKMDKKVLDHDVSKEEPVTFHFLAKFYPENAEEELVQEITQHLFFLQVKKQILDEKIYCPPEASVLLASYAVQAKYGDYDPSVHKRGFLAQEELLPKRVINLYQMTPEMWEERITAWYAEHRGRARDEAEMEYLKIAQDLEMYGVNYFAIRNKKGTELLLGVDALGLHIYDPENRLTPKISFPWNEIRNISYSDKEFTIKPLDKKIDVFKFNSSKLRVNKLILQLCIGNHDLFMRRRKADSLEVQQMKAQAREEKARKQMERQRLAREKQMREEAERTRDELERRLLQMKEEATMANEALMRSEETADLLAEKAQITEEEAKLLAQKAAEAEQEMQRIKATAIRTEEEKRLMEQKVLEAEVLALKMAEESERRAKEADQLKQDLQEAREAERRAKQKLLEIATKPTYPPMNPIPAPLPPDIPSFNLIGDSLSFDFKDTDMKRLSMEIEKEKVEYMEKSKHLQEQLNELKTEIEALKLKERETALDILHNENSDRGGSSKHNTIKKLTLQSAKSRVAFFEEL

effect of a mutation on the interaction | Variant
with no effect | G386D

Variants of: B1
Settings: with nfic_human NFIC

effect of a mutation on the interaction | Variant
with no effect | G386D

Variants of: B1
Settings: with ikba_human NFKBIA

effect of a mutation on the interaction | Variant
with no effect | G386D

Variants of: B1
Settings: with notc2_human NOTCH2, Q04721

effect of a mutation on the interaction | Variant
with no effect | G386D

Variants of: B1
Settings: with nox1_human NOX1, Q9Y5S8

effect of a mutation on the interaction | Variant
with no effect | G386D

Variants of: B1
Settings: with ntrk2_human NTRK2, Q16620

effect of a mutation on the interaction | Variant
with no effect | G386D

Variants of: B1
Settings: with pak3_human PAK3, O75914
pak3_human PAK3, O75914, sequence (O75914 whole entry, looked up): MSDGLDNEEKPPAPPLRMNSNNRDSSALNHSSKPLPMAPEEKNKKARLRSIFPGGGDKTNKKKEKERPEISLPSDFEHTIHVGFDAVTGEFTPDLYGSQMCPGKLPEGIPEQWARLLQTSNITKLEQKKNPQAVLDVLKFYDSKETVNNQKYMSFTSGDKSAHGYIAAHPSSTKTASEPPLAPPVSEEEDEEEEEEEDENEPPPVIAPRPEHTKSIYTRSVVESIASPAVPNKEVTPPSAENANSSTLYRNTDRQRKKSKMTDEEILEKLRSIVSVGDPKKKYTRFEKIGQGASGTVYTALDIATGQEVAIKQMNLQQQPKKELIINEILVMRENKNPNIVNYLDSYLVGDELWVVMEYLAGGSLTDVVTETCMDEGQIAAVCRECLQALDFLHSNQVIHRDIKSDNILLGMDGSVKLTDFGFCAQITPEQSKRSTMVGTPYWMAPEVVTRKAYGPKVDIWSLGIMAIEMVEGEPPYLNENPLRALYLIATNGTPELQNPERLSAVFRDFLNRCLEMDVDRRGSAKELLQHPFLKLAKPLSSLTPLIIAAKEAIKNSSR

effect of a mutation on the interaction | Variant
with no effect | G386D

Variants of: B1
Settings: with prkn_human PRKN

effect of a mutation on the interaction | Variant
with no effect | G386D

Variants of: B1
Settings: with pax5_human PAX5, Q02548

effect of a mutation on the interaction | Variant
with no effect | G386D

Variants of: B1
Settings: with pax9_human PAX9, P55771

effect of a mutation on the interaction | Variant
with no effect | G386D

Variants of: B1
Settings: with pb1_human PBRM1, Q86U86
pb1_human PBRM1, Q86U86, sequence (Q86U86 whole entry): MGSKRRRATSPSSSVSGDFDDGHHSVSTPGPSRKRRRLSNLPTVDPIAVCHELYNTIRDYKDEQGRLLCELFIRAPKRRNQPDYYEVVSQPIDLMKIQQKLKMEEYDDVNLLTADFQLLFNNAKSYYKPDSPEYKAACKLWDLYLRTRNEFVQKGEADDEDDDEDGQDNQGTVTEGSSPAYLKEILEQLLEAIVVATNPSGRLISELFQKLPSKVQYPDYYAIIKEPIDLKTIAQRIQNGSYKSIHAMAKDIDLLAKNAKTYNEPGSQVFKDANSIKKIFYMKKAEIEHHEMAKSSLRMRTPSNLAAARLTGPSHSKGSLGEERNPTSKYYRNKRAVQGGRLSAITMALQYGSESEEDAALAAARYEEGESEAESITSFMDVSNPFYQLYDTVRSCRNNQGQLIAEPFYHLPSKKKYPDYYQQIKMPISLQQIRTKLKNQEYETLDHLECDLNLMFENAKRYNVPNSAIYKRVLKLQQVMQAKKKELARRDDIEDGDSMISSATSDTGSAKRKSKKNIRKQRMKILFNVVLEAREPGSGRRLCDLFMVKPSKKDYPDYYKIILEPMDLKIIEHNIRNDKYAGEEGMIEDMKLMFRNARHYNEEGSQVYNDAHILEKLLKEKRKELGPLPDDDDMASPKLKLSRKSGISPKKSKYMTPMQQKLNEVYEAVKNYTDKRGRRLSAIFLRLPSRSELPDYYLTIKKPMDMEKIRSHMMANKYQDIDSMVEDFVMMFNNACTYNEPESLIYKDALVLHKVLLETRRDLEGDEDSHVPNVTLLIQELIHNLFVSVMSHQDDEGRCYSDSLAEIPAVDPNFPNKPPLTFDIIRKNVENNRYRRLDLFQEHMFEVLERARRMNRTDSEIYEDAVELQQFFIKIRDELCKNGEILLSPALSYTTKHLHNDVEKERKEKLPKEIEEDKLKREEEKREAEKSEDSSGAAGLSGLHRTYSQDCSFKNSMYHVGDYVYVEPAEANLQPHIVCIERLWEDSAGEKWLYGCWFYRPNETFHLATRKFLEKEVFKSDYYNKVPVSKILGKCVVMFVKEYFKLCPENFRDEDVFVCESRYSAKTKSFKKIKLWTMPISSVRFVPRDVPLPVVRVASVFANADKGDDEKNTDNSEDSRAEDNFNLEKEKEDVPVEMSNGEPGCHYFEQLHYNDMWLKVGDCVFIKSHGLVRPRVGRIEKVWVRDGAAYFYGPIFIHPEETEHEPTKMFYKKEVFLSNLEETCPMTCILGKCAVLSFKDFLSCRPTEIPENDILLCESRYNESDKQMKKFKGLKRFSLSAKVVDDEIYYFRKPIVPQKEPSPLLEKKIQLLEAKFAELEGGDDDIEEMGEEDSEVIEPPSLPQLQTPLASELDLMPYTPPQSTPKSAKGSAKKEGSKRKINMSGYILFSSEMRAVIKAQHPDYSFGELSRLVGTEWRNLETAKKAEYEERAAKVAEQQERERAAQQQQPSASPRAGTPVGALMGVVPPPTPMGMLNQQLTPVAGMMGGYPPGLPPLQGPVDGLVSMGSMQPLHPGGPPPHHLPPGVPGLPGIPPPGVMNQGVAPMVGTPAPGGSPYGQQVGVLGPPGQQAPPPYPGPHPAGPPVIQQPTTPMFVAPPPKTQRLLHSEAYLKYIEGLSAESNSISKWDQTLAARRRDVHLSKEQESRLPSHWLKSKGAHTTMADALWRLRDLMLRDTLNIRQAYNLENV

effect of a mutation on the interaction | Variant
with no effect | G386D

Variants of: B1
Settings: with pcbp1_human PCBP1, Q15365

effect of a mutation on the interaction | Variant
with no effect | G386D

Variants of: B1
Settings: with pgfra_human PDGFRA

effect of a mutation on the interaction | Variant
with no effect | G386D

Variants of: B1
Settings: with pgfrb_human PDGFRB

effect of a mutation on the interaction | Variant
with no effect | G386D

Variants of: B1
Settings: with pdk1_human PDK1, Q15118
pdk1_human PDK1, Q15118, sequence (Q15118 whole entry, looked up): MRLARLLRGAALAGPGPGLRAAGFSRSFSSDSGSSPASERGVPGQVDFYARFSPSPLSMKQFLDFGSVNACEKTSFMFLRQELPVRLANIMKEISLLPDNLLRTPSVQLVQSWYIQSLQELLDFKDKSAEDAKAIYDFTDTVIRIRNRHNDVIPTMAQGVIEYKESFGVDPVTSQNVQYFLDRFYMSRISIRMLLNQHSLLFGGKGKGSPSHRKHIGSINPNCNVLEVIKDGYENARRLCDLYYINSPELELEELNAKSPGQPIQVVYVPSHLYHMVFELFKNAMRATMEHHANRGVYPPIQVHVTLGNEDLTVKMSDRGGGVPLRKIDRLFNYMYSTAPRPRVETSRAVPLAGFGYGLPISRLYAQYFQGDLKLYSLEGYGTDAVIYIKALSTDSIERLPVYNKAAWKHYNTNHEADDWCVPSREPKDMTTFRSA

effect of a mutation on the interaction | Variant
with no effect | G386D

Variants of: B1
Settings: with PIK3C2B

effect of a mutation on the interaction | Variant
with no effect | G386D

Variants of: B1
Settings: with pk3c3_human PIK3C3, Q8NEB9

effect of a mutation on the interaction | Variant
with no effect | G386D

Variants of: B1
Settings: with pk3ca_human PIK3CA

effect of a mutation on the interaction | Variant
with no effect | G386D

Variants of: B1
Settings: with pk3cb_human PIK3CB

effect of a mutation on the interaction | Variant
with no effect | G386D

Variants of: B1
Settings: with pk3cg_human PIK3CG

effect of a mutation on the interaction | Variant
with no effect | G386D

Variants of: B1
Settings: with p85a_human PIK3R1, P27986

effect of a mutation on the interaction | Variant
with no effect | G386D
